Our source for the Library fraction and Raw reads values is paper PMC10683472, “Deep Learning-Driven Library Design for the De Novo Discovery of Bioactive Thiopeptides” (ACS Central Science, 2023).

The test concerns the target T1, IRAK4 (Homo sapiens, UniProt Q9NWZ3).
T1 sequence (Q9NWZ3 1-460): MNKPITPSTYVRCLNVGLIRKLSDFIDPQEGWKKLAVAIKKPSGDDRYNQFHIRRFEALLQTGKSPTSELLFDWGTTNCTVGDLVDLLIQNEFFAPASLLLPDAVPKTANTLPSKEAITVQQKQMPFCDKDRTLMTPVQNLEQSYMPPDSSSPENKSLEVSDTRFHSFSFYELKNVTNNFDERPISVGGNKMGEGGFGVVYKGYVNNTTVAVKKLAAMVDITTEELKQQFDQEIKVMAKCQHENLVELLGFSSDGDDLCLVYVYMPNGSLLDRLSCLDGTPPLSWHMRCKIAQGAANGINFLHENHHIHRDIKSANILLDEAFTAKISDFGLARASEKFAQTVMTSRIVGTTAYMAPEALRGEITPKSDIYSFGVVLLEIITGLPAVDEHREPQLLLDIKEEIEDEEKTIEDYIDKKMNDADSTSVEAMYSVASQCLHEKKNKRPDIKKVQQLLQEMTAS
Description: mRNA display affinity selection against IRAK4, NGS abundance. Particulars: Top100 selection hits, NGS. The arrangement: acids 1-460; NP_057207.2) was purchased from Carna Biosciences; purchased Carna Biosciences (Kobe, Japan). The class given is binding.

With TQRWKRRNYT, the Library fraction is, setting by setting: (IRAK4 selection pulldown (+)) 0.0013; (IRAK4 selection pulldown (-)) 0.0006. Moreover, the Raw reads (IRAK4 selection pulldown (+)) is given as 136 and the Raw reads (IRAK4 selection pulldown (-)) is given as 80.
For the setting “IRAK4 selection pulldown (+)”, TLCWKRRTWK displayed a Library fraction of 0.026 and a Raw reads of 2745. Further, under “IRAK4 selection pulldown (-)”, the Library fraction is recorded as 0.018 and the Raw reads is reported as 2408.
In the same order, the values of SVLWKRRIAK are 0.010, 1112, 0.011 and 1441.
The corresponding values for RLLWRRRNYA are 0.0009, 98, 0.00106 and 142.
As to SMQRRVIKWTWA, for the setting “IRAK4 selection pulldown (-)”, the Library fraction turned out to be 0.00016 and the Raw reads is recorded as 21.
Under “IRAK4 selection pulldown (+)”, AQYWKRRLWR gave a Library fraction of 0.0001 and a Raw reads of 9.
As for SMKRQFITRHWT, where the note is “IRAK4 selection pulldown (-)”, the Library fraction is on record as 7e-5 and the Raw reads was found to be 9.
In the case of TQRWKQKNWS, under “IRAK4 selection pulldown (+)”, the Library fraction was determined as 0.0001 and the Raw reads is given as 9.
Where the note is “IRAK4 selection pulldown (+)”, TQFWKRRNYA had a Library fraction of 0.0002 and a Raw reads of 26. Also, where the note is “IRAK4 selection pulldown (-)”, the Library fraction was 7e-5 and the Raw reads came out at 10.
Where the note is “IRAK4 selection pulldown (+)”, SMLFKRRIYR displayed a Library fraction of 0.0001 and a Raw reads of 15.
On to TLCWRRRNYK, for which, under “IRAK4 selection pulldown (+)”, the Library fraction came out at 0.024 and the Raw reads is reported as 2567. Also, under “IRAK4 selection pulldown (-)”, the Library fraction worked out at 0.011 and the Raw reads came to 1518.
Where the note is “IRAK4 selection pulldown (+)”, SMLWKRKIWG showed a Library fraction of 0.0047 and a Raw reads of 498. Under “IRAK4 selection pulldown (-)”, this sequence returned a Library fraction of 0.00177 and a Raw reads of 237.
With SVRWKHRIYK, where the note is “IRAK4 selection pulldown (+)”, the Library fraction came out at 0.0003 and the Raw reads was 29. In addition, under “IRAK4 selection pulldown (-)”, the Library fraction was 0.00012 and the Raw reads stood at 16.
In the same order, the values of SLYWKSRIWR are 0.0026, 283, 0.00072 and 96.
Consider SRLWRRRIYH, for which, where the note is “IRAK4 selection pulldown (+)”, the Library fraction is 0.009 and the Raw reads is listed as 985. Under “IRAK4 selection pulldown (-)”, the Library fraction is given as 0.014 and the Raw reads was 1900.
In the same order, the values of SQRYRNRNYQ are 0.0023, 242, 0.00064 and 85.
In the same order, the values of TQRWRARNYK are 0.006, 624, 0.00431 and 576.
In the same order, the values of SLLWKRRVYC are 0.0007, 78, 0.00057 and 76.
In the case of SARWRRRNYS, under “IRAK4 selection pulldown (-)”, the Library fraction stood at 0.00011 and the Raw reads stood at 15.
Turning to SMLFKRRMYK, the Library fraction (IRAK4 selection pulldown (+)) amounted to 0.0003 and the Library fraction (IRAK4 selection pulldown (-)) is 0.00019. The sequence further had a Raw reads (IRAK4 selection pulldown (+)) of 27 and a Raw reads (IRAK4 selection pulldown (-)) of 26.
For the setting “IRAK4 selection pulldown (+)”, TMLWKRRLFR came in with a Library fraction of 0.0001 and a Raw reads of 9.
Sequence SVLWKRKIHN registered a Library fraction (IRAK4 selection pulldown (+)) of 0.0012 and a Library fraction (IRAK4 selection pulldown (-)) of 0.001. Besides, the Raw reads (IRAK4 selection pulldown (+)) stood at 125 and the Raw reads (IRAK4 selection pulldown (-)) was determined as 137.
In the same order, the values of SQLWNRRLYK are 0.0009, 0.00059, 93 and 79.
Turning to STYRKRRIWY, where the note is “IRAK4 selection pulldown (+)”, the Library fraction worked out at 0.0001 and the Raw reads was 14.
On to TADGLILTPWVT, for which, for the setting “IRAK4 selection pulldown (+)”, the Library fraction is on record as 0.0001 and the Raw reads was 15. Besides, for the setting “IRAK4 selection pulldown (-)”, the Library fraction is reported as 0.00281 and the Raw reads was 375.
On to TQRWKCRLYR, for which, for the setting “IRAK4 selection pulldown (+)”, the Library fraction worked out at 0.0001 and the Raw reads was found to be 12.
Where the note is “IRAK4 selection pulldown (+)”, RMLWKRRMWH registered a Library fraction of 0.0011 and a Raw reads of 118. Under “IRAK4 selection pulldown (-)”, this sequence returned a Library fraction of 0.00041 and a Raw reads of 55.
For the setting “IRAK4 selection pulldown (+)”, SVLWRKRIYR registered a Library fraction of 0.0037 and a Raw reads of 391. Further, where the note is “IRAK4 selection pulldown (-)”, the Library fraction is 0.00143 and the Raw reads was 191.
Where the note is “IRAK4 selection pulldown (-)”, SMRRQFITWHWT had a Library fraction of 9e-5 and a Raw reads of 12.
Under “IRAK4 selection pulldown (-)”, CQRIGRRNYS gave a Library fraction of 0.0001 and a Raw reads of 14.
With SMLWGRRIYR, under “IRAK4 selection pulldown (+)”, the Library fraction is on record as 0.0016 and the Raw reads is listed as 168. Where the note is “IRAK4 selection pulldown (-)”, this sequence showed a Library fraction of 0.00036 and a Raw reads of 48.
Where the note is “IRAK4 selection pulldown (+)”, SLLWKRRMMK yielded a Library fraction of 0.0001 and a Raw reads of 11.
In the same order, the values of MMLWKRRMYK are 0.0001 and 15.
In the same order, the values of SMLFKRRVYK are 0.0001 and 10.
Regarding SQRWRNRNYR, where the note is “IRAK4 selection pulldown (+)”, the Library fraction turned out to be 0.013 and the Raw reads was found to be 1364. Where the note is “IRAK4 selection pulldown (-)”, the Library fraction is on record as 0.010 and the Raw reads is reported as 1401.
